Reference: PMC12903456, “DoMYB75 coordinately regulates polysaccharide and anthocyanin biosynthesis in Dendrobium officinale”

Molecular target: MBP-DoMYB75 (Dendrobium officinale, UniProt A0A2I0X1N0 1-290)
Test: EMSA; competed by unlabeled probe; LightShift Chemiluminescent EMSA Kit (Thermo Fisher) per manufacturer; buffer, salt, pH and temperature not stated
Details: protein: recombinant; tags: MBP; label: biotin; blunt

MBP-DoMYB75, sequence (A0A2I0X1N0 entry or part of it): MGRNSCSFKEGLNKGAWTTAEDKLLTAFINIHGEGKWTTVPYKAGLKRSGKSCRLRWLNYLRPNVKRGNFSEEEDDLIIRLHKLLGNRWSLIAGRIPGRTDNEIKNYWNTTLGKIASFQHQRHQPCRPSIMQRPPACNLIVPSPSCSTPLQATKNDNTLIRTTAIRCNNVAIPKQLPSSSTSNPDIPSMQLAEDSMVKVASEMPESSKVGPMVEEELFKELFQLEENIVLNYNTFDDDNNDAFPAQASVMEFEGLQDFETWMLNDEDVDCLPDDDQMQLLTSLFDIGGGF

Binder | binding result
ProCSLA9 probe (dsDNA) DNA 1: TAAGAAACTTTGATAACTATTAGATGACCAAATTAATTCAATCATACCGTAAATAATTC DNA 2: GAATTATTTACGGTATGATTGAATTAATTTGGTCATCTAATAGTTATCAAAGTTTCTTA | binds
ProCSLA12 probe (dsDNA) DNA 1: CCCTAAAGGTTGGAGTTGGTCACTCAACCTAACCTTAAATAATGATTCATGTTGTATTC DNA 2: GAATACAACATGAATCATTATTTAAGGTTAGGTTGAGTGACCAACTCCAACCTTTAGGG | binds
ProCSLA3 probe (dsDNA) DNA 1: TCACATTTATCACGTTTGAGTTCGATACCAACTTTTTTTTTTTTTTTTTGAGC DNA 2: GCTCAAAAAAAAAAAAAAAAAGTTGGTATCGAACTCAAACGTGATAAATGTGA | binds
